The values that follow come from publication PMC8051608, “Overexpression of GmMYB14 improves high‐density yield and drought tolerance of soybean through regulating plant architecture mediated by the brassinosteroid pathway”.

In the data set the target is T1, GmMYB14 (Glycine max cv. Tianlong No. 1, UniProt K7MYP5 1-291).
T1 sequence: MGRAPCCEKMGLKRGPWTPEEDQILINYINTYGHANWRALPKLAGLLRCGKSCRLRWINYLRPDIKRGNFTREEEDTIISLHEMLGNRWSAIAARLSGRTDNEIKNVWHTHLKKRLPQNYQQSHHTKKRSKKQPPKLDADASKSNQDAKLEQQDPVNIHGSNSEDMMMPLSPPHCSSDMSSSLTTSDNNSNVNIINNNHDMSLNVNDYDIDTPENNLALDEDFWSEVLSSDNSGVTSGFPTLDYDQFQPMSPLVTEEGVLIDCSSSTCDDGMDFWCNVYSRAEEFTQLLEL
As to the kind of experiment: EMSA; 100x cold probe competition tested; EMSA Kit (Thermo Fisher), non-denaturing 6% polyacrylamide gel, streptavidin-HRP/ECL detection; buffer, salt, pH and temperature not stated. The conditions noted are these: protein: recombinant; tags: His (pCzn1-His vector); label: biotin; annealed complementary oligos. A general note: Mobility shift assays separate free from complexed probe on a gel.

B1: GmBEN1 promoter AC element 1 probe (30 bp) (dsDNA)
DNA 1: TAATACACCAAGCCACCTACCTTGTCTCTTT
DNA 2: AAAGAGACAAGGTAGGTGGCTTGGTGTATTA
Turning to B1, the binding result was “binds”.
